According to patent publication US20180169189A1 (AUTOLUS, published 2018):

Legend:
[1] = target: T1, CD20-P172W (human, UniProt P11836 1-297); experiment: flow cytometry staining of transfected 293T cells
T1 construct: also called P172W mutated CD20
T1 sequence: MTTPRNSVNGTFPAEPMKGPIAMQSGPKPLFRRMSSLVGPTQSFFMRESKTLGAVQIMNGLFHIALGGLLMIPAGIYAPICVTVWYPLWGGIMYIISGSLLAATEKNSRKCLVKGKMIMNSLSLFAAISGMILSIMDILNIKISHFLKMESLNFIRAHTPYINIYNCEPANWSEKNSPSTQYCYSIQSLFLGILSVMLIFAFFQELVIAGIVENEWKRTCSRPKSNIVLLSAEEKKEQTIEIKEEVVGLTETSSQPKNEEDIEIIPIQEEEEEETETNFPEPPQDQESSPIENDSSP

[2] = target: T2, amino-terminal (endodomain) truncate of CD20 (human, UniProt P11836 42-297); experiment: flow cytometry, transfected 293T cells
T2 construct: Expressed on transfected 293T cells, fused or co-expressed with eGFP (the text and the legend differ); As expressed in dCD20-FAS, the construct carries an extra N-terminal MG; also called dCD20
T2 sequence: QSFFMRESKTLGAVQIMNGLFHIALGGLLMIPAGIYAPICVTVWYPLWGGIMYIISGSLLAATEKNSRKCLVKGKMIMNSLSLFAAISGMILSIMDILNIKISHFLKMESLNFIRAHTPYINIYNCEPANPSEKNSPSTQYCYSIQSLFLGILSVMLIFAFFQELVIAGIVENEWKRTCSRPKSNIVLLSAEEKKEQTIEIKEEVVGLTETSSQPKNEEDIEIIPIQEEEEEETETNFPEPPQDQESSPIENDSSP
Description: (§1) To this end: full-length CD20; an amino-terminal (endodomain) truncate of CD20; and a carboxy-terminal (endodomain) truncate of CD20 were each fused with eGFP.

[3] = target: T3, carboxy-terminal (endodomain) truncate of CD20 (human, UniProt P11836 2-236); experiment: flow cytometry, transfected 293T cells
T3 construct: Expressed on transfected 293T cells, fused or co-expressed with eGFP (the text and the legend differ); also called CD20d
T3 sequence: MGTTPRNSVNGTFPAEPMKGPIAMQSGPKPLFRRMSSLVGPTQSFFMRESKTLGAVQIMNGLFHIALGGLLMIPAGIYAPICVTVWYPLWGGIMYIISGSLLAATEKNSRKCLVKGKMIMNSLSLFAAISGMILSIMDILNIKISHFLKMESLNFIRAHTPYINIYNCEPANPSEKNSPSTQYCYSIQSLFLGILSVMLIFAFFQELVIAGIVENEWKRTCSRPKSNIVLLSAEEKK
Description: as §1

- binding result [1]: no binding
- binding result [2]: binds
- binding result [3]: binds
B1: Rituximab (antibody, V domains shown)
VH: QVQLQQPGAELVKPGASVKMSCKASGYTFTSYNMHWVKQTPGRGLEWIGAIYPGNGDTSYNQKFKGKATLTADKSSSTAYMQLSSLTSEDSAVYYCARSTYYGGDWYFNVWGAGTTVTVS
VL: QIVLSQSPAILSASPGEKVTMTCRASSSVSYIHWFQQKPGSSPKPWIYATSNLASGVPVRFSGSGSGTSYSLTISRVEAEDAATYYCQQWTSNPPTFGGGTKLEIKR
notes: also called Rituxumab; Rituxan
